*1 amine or outer side, *2 acyl side, *3 side chain or, on linkers, in order; H or OH if unused. Bridges are numbered along the chain shown (N, C = ends). Where no end group is shown, it is not given here. TATA = O=C(CC[*:1])N1CN(C(=O)CC[*:2])CN(C(=O)CC[*:3])C1
T1: human CD38 (human, UniProt P28907 43-300, limits assumed)
T1 construct: also called hCD38
T1 sequence (looked up): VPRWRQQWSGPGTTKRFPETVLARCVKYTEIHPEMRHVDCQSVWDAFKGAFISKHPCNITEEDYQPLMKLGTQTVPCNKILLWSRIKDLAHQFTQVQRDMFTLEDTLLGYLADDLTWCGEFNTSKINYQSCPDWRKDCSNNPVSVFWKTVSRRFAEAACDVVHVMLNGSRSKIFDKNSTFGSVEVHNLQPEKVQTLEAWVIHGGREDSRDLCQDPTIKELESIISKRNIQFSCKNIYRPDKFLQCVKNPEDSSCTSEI


Target: T1, human CD38
Experiment: fluorescence polarisation competition with the labelled tracer peptide

Ki [nM]	Binder
316	ACYWNPFTACYSCTEN (linker 2-10-13 via TATA (inferred), Synthetic bicyclic peptide cyclised with TATA; also called 66-50-19-T002-N001) [66-50-19-T02-N001]
90	ACYWNPFTACWSCEND (linker 2-10-13 via TATA (inferred), Synthetic bicyclic peptide cyclised with TATA) [66-50-16-T01-N001]

From patent publication US20220064218A1 (Bicycle, published 2022)
